Earlier results in article PMC4283463 (Journal of pharmaceutical sciences, 2014).

In the case of human growth hormone [hGH], the “decrease in stability on carbamidomethylation of all four Cys residues” value is given as ~ 37.7 kJ/mol.
